# Reference: patent US20250340662A1
# Positions count from the first letter of the chain named.
# T1: Human v6-peptide (human)
# T1 sequence (peptide, N-terminal biotin): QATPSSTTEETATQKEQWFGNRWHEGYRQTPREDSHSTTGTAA
# B1: BIWA4 IgG1 LALA (antibody, from another filing, V domains shown)
# VH: EVQLVESGGGLVKPGGSLRLSCAASGFTFSSYDMSWVRQAPGKGLEWVSTISSGGSYTYYLDSIKGRFTISRDNAKNSLYLQMNSLRAEDTAVYYCARQGLDYWGRGTLVTVSS
# VL: EIVLTQSPATLSLSPGERATLSCSASSSINYIYWYQQKPGQAPRLLIYLTSNLASGVPARFSGSGSGTDFTLTISSLEPEDFAVYYCLQWSSNPLTFGGGTKVEIKR
# B2: BIWA4 IgG1 LALA IAHA (antibody, from another filing, V domains shown)
# VH: B1 VH
# VL: B1 VL
# B3: AL-MN114-435 hIgG4 (antibody, V domains shown)
# VH: EVQLLESGGGLVQPGGSLRLSCAASGFTFSSYAMSWVRQAPGKGLEWVSAISAGGSSTFYADSVKGRFTISRDNSKNTLYLQMNSLRAEDTAVYYCARHYYSDSDYRSSAAMDYWGQGTLVTVSS
# VL: DIQMTQSPSSLSASVGDRVTITCRASQSISSYLNWYQQKPGKAPKLLIYAASSLQSGVPSRFSGSGSGTDFTLTISSLQPEDFATYYCQQDLYLLTFGQGTKLEIK
# B4: AL-MN114-444 hIgG4 (antibody, V domains shown)
# VH: B3 VH with S30R, Y32F, A53G
# VL: B3 VL with S30G, A50S
# B5: AL-MN114-451 hIgG4 (antibody, V domains shown)
# VH: B3 VH with S56Y, F59Y
# VL: B3 VL with S30G, A50T, S53T
# B6: AL-MN114-465 hIgG4 (antibody, V domains shown)
# VH: B3 VH with T28S, S30G
# VL: B3 VL with A50T
# B7: AL-MN114-18 hIgG4 (antibody, V domains shown)
# VH: B3 VH with T28S, S30G, Y32F, A53G, F59Y
# VL: B3 VL with S28T, S30A, A50T, S53N
# B8: AL-MN114-19 hIgG4 (antibody, V domains shown)
# VH: B3 VH with T28S, S30G, A53G
# VL: B3 VL with A50S
# B9: AL-MN114-23 hIgG4 (antibody, V domains shown)
# VH: B3 VH with T28S, S30R, S31N, Y32F, A53G, S56G
# VL: B3 VL with S28N, A50S, S53I
# B10: AL-MN114-42 hIgG4 (antibody, V domains shown)
# VH: B3 VH with A53G, S56Y, F59Y
# VL: B3 VL with S28T, S30G, A50S, S53I
# B11: AL-MN114-71 hIgG4 (antibody, V domains shown)
# VH: B3 VH with T28S, S30R, Y32F, A53G
# VL: B3 VL with S53T
# B12: AL-MN114-79 hIgG4 (antibody, V domains shown)
# VH: B3 VH with S30R, Y32F, A50T
# VL: B3 VL with S30A, S31N, S53T
# B13: AL-MN114-93 hIgG4 (antibody, V domains shown)
# VH: B3 VH with T28S, S30G, Y32F, F59Y
# VL: B3 VL
# B14: AL-MN114-126 hIgG4 (antibody, V domains shown)
# VH: B3 VH with F59Y
# VL: B3 VL
# B15: AL-MN114-132 hIgG4 (antibody, V domains shown)
# VH: B3 VH with A53G, F59Y
# VL: B3 VL
# B16: AL-MN114-145 hIgG4 (antibody, V domains shown)
# VH: B3 VH with T28S, Y32F
# VL: B3 VL with S30G, A50S, S53N
# B17: AL-MN114-423 hIgG4 (antibody, V domains shown)
# VH: B3 VH with S56T, F59Y
# VL: B3 VL
# B18: AL-MN114-429 hIgG4 (antibody, V domains shown)
# VH: B3 VH with T28S, Y32F, F59Y
# VL: B3 VL
# B19: AL-MN114-439 hIgG4 (antibody, V domains shown)
# VH: B3 VH with T28S, S30G, Y32F
# VL: B3 VL
# B20: AL-MN114-14 hIgG4 (antibody, V domains shown)
# VH: B3 VH with A53G, G54S, S56R
# VL: B3 VL
# B21: AL-MN114-452 hIgG4 (antibody, V domains shown)
# VH: B3 VH with T28S
# VL: B3 VL with S30G, A50S
# B22: AL-MN114-460 hIgG4 (antibody, V domains shown)
# VH: B3 VH with T28S, S30G, F59Y
# VL: B3 VL with S30G, A50S
# Target: T1, Human v6-peptide (human)
# Experiment: SPR SCK, antibody immobilised, peptide injected
Kd [nM],koff [s⁻¹],kon [M⁻¹ s⁻¹],Binder
15,0.0035,240000,B1
73,0.0027,36000,B2

# Target: Cynomolgus v6-peptide (cynomolgus)
# Experiment: SPR SCK, antibody immobilised, peptide injected
# Cynomolgus v6-peptide (cynomolgus), sequence (peptide, as listed by the source): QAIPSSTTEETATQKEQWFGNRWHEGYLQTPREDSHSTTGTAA
Kd [nM],koff [s⁻¹],kon [M⁻¹ s⁻¹],Binder
12,0.0035,280000,B1
44,0.0036,83000,B2

# Target: Human CD44v6 iso4-Fc (human) (UniProt P16070)
# Experiment: SPR SCK, antibody immobilised, CD44v6-Fc injected; apparent KD
# Human CD44v6 iso4-Fc (human), sequence (P16070 other isoform, or with tags, fused parts or gaps limits assumed): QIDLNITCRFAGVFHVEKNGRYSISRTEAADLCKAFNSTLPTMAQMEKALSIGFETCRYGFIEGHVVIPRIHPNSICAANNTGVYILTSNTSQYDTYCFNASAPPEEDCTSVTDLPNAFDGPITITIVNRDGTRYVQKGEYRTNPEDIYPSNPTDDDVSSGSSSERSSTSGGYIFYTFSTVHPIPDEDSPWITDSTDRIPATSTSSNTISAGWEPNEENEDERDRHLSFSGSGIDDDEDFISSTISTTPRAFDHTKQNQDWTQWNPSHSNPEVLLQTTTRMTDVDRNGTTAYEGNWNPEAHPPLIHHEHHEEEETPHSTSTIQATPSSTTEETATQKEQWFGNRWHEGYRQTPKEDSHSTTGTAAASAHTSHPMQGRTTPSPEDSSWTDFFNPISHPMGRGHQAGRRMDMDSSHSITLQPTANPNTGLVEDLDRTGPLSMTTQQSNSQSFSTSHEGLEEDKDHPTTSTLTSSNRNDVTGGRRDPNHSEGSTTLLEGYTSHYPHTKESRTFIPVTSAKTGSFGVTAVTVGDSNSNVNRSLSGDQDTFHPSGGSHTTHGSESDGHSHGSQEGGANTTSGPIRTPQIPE
row,Kd [nM],Binder
1,0.72,B1
2,14,B2

# Target: CD44v6 on cultured cancer cells (BHT-101, ACT-1, A431) (human) (UniProt P16070)
# Experiment: live BHT-101 cells; apparent KD
row,Kd [nM],Binder
1,< 0.2,B3
2,< 0.2,B4
3,< 0.2,B5
4,< 0.2,B6
5,< 0.2,B7
6,< 0.2,B8
7,< 0.2,B9
8,< 0.2,B10
9,< 0.2,B11
10,< 0.2,B12
11,< 0.2,B13
12,< 0.2,B14
13,< 0.2,B15
14,< 0.2,B16
15,< 0.2,B17
16,< 0.2,B18
17,< 0.2,B19
18,< 0.2,B20
19,< 0.2,B21
20,< 0.2,B22

# Target: Human CD44v6 iso4-Fc (human) (UniProt P16070)
# Experiment: SPR SCK, antibody immobilised, CD44v6-Fc injected
koff [s⁻¹],kon [M⁻¹ s⁻¹],Binder
0.00027,370000,B1
0.00033,24000,B2

# Target: CD44v6 on cultured cancer cells (BHT-101, ACT-1, A431) (human) (UniProt P16070)
# Experiment: LigandTracer, 125I-IgG4 on BHT-101 cells
row,Kd [nM],Binder
1,0.02,B3
2,0.02,B4
3,0.03,B5
4,0.03,B6
5,0.02,B7
6,0.04,B8
7,0.04,B10
8,0.02,B11
9,0.03,B12
10,0.04,B14
11,0.1,B17
12,0.06,B18

# Target: CD44v6 on cultured cancer cells (BHT-101, ACT-1, A431) (human) (UniProt P16070)
# Experiment: LigandTracer, 177Lu-antibody on A431 cells
row,Kd [nM],Binder
1,0.03,B6
